According to patent publication US20240108738A1 (Bicycle, published 2024):
Numbered stars: 1 amine (or outer) side, 2 acyl side, 3 side chain; on linkers, the order of the positions; unused ones are H or OH. Bridge positions count the residues as written; N and C are the ends. Square brackets hold non-standard residues; d marks the D form. Ends that are not written are not given here. * marks the point of attachment. 4MeOPhe = 4-methoxy-phenylalanine, COc1ccc(C[C@H](N[*:1])C(=O)[*:2])cc1; TATA = O=C(CC[*:1])N1CN(C(=O)CC[*:2])CN(C(=O)CC[*:3])C1; Phe(4-CONH2) = NC(=O)c1ccc(C[C@H](N)C(=O)O)cc1; Phe(4-F) = N[C@@H](Cc1ccc(F)cc1)C(=O)O; 1Nal = N[C@@H](Cc1cccc2ccccc12)C(=O)O; 2Nal = N[C@@H](Cc1ccc2ccccc2c1)C(=O)O; Ala(cPent) = N[C@@H](CC1CCCC1)C(=O)O; tBuAla = CC(C)(C)C[C@H](N)C(=O)O; Cba = N[C@@H](CC1CCC1)C(=O)O; Pent4ynoyl = C#CCCC(=O)*; Aib = CC(C)(N)C(=O)O

B1: BCY16834 (peptide)
peptide: ACK(Pent4ynoyl)LPDYLCGDEYCA-NH2
modifications: linker 2-9-14 via TATA; N-terminus assumed
SMILES: C#CCCC(=O)NCCCC[C@@H]1NC(=O)[C@@H](NC(=O)[C@H](C)N)CSCCC(=O)N2CN3CN(C2)C(=O)CCSC[C@@H](C(=O)N[C@@H](C)C(N)=O)NC(=O)[C@H](Cc2ccc(O)cc2)NC(=O)[C@H](CCC(=O)O)NC(=O)[C@H](CC(=O)O)NC(=O)CNC(=O)[C@H](CSCCC3=O)NC(=O)[C@H](CC(C)C)NC(=O)[C@H](Cc2ccc(O)cc2)NC(=O)[C@H](CC(=O)O)NC(=O)[C@@H]2CCCN2C(=O)[C@H](CC(C)C)NC1=O
notes: scaffold TATA
B2: BCY16134 (peptide)
peptide: [dA]CYLPDYLCGDEYC-NH2
modifications: linker 2-9-14 via TATA; N-terminus assumed
SMILES: CC(C)C[C@@H]1NC(=O)[C@H](Cc2ccc(O)cc2)NC(=O)[C@H](CC(=O)O)NC(=O)[C@@H]2CCCN2C(=O)[C@H](CC(C)C)NC(=O)[C@H](Cc2ccc(O)cc2)NC(=O)[C@@H](NC(=O)[C@@H](C)N)CSCCC(=O)N2CN3CN(C2)C(=O)CCSC[C@H](NC1=O)C(=O)NCC(=O)N[C@@H](CC(=O)O)C(=O)N[C@@H](CCC(=O)O)C(=O)N[C@@H](Cc1ccc(O)cc1)C(=O)N[C@H](C(N)=O)CSCCC3=O
notes: scaffold TATA
B3: BCY15644 (peptide)
peptide: ACYLPD[2Nal]LCGDEYCA-NH2
modifications: linker 2-9-14 via TATA; N-terminus assumed
SMILES: CC(C)C[C@@H]1NC(=O)[C@H](Cc2ccc3ccccc3c2)NC(=O)[C@H](CC(=O)O)NC(=O)[C@@H]2CCCN2C(=O)[C@H](CC(C)C)NC(=O)[C@H](Cc2ccc(O)cc2)NC(=O)[C@@H](NC(=O)[C@H](C)N)CSCCC(=O)N2CN3CN(C2)C(=O)CCSC[C@@H](C(=O)N[C@@H](C)C(N)=O)NC(=O)[C@H](Cc2ccc(O)cc2)NC(=O)[C@H](CCC(=O)O)NC(=O)[C@H](CC(=O)O)NC(=O)CNC(=O)[C@H](CSCCC3=O)NC1=O
notes: scaffold TATA
B4: BCY15643 (peptide)
peptide: ACYLPD[1Nal]LCGDEYCA-NH2
modifications: linker 2-9-14 via TATA; N-terminus assumed
SMILES: CC(C)C[C@@H]1NC(=O)[C@H](Cc2cccc3ccccc23)NC(=O)[C@H](CC(=O)O)NC(=O)[C@@H]2CCCN2C(=O)[C@H](CC(C)C)NC(=O)[C@H](Cc2ccc(O)cc2)NC(=O)[C@@H](NC(=O)[C@H](C)N)CSCCC(=O)N2CN3CN(C2)C(=O)CCSC[C@@H](C(=O)N[C@@H](C)C(N)=O)NC(=O)[C@H](Cc2ccc(O)cc2)NC(=O)[C@H](CCC(=O)O)NC(=O)[C@H](CC(=O)O)NC(=O)CNC(=O)[C@H](CSCCC3=O)NC1=O
notes: scaffold TATA
B5: BCY16136 (peptide)
peptide: ACYLPD[4MeOPhe]LCGDEYCA-NH2
modifications: linker 2-9-14 via TATA; N-terminus assumed
SMILES: COc1ccc(C[C@@H]2NC(=O)[C@H](CC(=O)O)NC(=O)[C@@H]3CCCN3C(=O)[C@H](CC(C)C)NC(=O)[C@H](Cc3ccc(O)cc3)NC(=O)[C@@H](NC(=O)[C@H](C)N)CSCCC(=O)N3CN4CN(C3)C(=O)CCSC[C@@H](C(=O)N[C@@H](C)C(N)=O)NC(=O)[C@H](Cc3ccc(O)cc3)NC(=O)[C@H](CCC(=O)O)NC(=O)[C@H](CC(=O)O)NC(=O)CNC(=O)[C@H](CSCCC4=O)NC(=O)[C@H](CC(C)C)NC2=O)cc1
notes: scaffold TATA
B6: BCY15648 (peptide)
peptide: ACYLPDW[tBuAla]CGDEYCA-NH2
modifications: linker 2-9-14 via TATA; N-terminus assumed
SMILES: CC(C)C[C@@H]1NC(=O)[C@H](Cc2ccc(O)cc2)NC(=O)[C@@H](NC(=O)[C@H](C)N)CSCCC(=O)N2CN3CN(C2)C(=O)CCSC[C@@H](C(=O)N[C@@H](C)C(N)=O)NC(=O)[C@H](Cc2ccc(O)cc2)NC(=O)[C@H](CCC(=O)O)NC(=O)[C@H](CC(=O)O)NC(=O)CNC(=O)[C@H](CSCCC3=O)NC(=O)[C@H](CC(C)(C)C)NC(=O)[C@H](Cc2c[nH]c3ccccc23)NC(=O)[C@H](CC(=O)O)NC(=O)[C@@H]2CCCN2C1=O
notes: scaffold TATA
B7: BCY16140 (peptide)
peptide: ACYLPD[Phe(4-CONH2)]LCGDEYCA-NH2
modifications: linker 2-9-14 via TATA; N-terminus assumed
SMILES: CC(C)C[C@@H]1NC(=O)[C@H](Cc2ccc(C(N)=O)cc2)NC(=O)[C@H](CC(=O)O)NC(=O)[C@@H]2CCCN2C(=O)[C@H](CC(C)C)NC(=O)[C@H](Cc2ccc(O)cc2)NC(=O)[C@@H](NC(=O)[C@H](C)N)CSCCC(=O)N2CN3CN(C2)C(=O)CCSC[C@@H](C(=O)N[C@@H](C)C(N)=O)NC(=O)[C@H](Cc2ccc(O)cc2)NC(=O)[C@H](CCC(=O)O)NC(=O)[C@H](CC(=O)O)NC(=O)CNC(=O)[C@H](CSCCC3=O)NC1=O
notes: scaffold TATA
B8: BCY16135 (peptide)
peptide: ACYLPD[Phe(4-F)]LCGDEYCA-NH2
modifications: linker 2-9-14 via TATA; N-terminus assumed
SMILES: CC(C)C[C@@H]1NC(=O)[C@H](Cc2ccc(F)cc2)NC(=O)[C@H](CC(=O)O)NC(=O)[C@@H]2CCCN2C(=O)[C@H](CC(C)C)NC(=O)[C@H](Cc2ccc(O)cc2)NC(=O)[C@@H](NC(=O)[C@H](C)N)CSCCC(=O)N2CN3CN(C2)C(=O)CCSC[C@@H](C(=O)N[C@@H](C)C(N)=O)NC(=O)[C@H](Cc2ccc(O)cc2)NC(=O)[C@H](CCC(=O)O)NC(=O)[C@H](CC(=O)O)NC(=O)CNC(=O)[C@H](CSCCC3=O)NC1=O
notes: scaffold TATA

Biological target: T1, Human NKp46 Fc tag (Acro Biosystems, NC1-H5257) (human, UniProt O76036 22-255)
T1 construct: bought; also called Fc-tagged human NKp46
Assay: SPR Method 1 and/or 2
In short: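 Fc-tagged human NKp46 captured on anti-human IgG surface (500–1000 RU); compounds run in PBS-P+ with 2% DMSO at 25 °C, 50 μL/min, 60 s association, 400 s dissociation. Double-referenced, DMSO-corrected; KD from steady-state 1:1 fit, kinetic constants from kinetic 1:1 fit where appropriate.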

T1 sequence (O76036 22-255 limits assumed): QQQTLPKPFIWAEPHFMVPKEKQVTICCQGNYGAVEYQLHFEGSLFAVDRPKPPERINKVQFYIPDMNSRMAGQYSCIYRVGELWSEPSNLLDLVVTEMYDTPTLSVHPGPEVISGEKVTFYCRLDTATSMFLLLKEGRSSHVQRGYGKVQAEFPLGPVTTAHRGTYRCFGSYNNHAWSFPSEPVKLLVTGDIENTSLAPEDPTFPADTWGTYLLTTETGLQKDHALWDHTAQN

| Kd [nM] | Binder |
| --- | --- |
| 83 | B1 |
| 69 | ACNLQLHNCQWGICA-NH2 (linker 2-9-14 via TATA; also: scaffold TATA, TATB or TBMT, scaffold TATA) [BCY15568] |
| 642 | ACDLTTHNCLWGVCA-NH2 (linker 2-9-14 via TATA; also: scaffold TATA, TATB or TBMT, scaffold TATA) [BCY15108] |
| 274 | ACNLQLHNCIWGVCA-NH2 (linker 2-9-14 via TATA; also: scaffold TATA, TATB or TBMT, scaffold TATA) [BCY15109] |

Biological target: T2, Human NKp46 His tag (Acro Biosystems, NC1-H52H4) (human, UniProt O76036 22-255)
T2 construct: bought; also called human NKp46-his tagged protein
Assay: FP competition vs BCY15035
Description: The untagged competitor peptides were diluted in assay buffer 25 mM HEPES, 100 mM NaCl, 0.01% P20, pH 7.4. to a top concentration of 5000 nM and diluted 2-fold in 11 steps. The human NKp46-his tagged protein (AcroBiosystems) was diluted to 40 nM final concentration in the assay. […] The total volume of 25 μL was prepared in black walled and flat-bottomed low binding low volume 384 well plates. Measurements were performed using Envision (PerkinElmer) equipped with the excitation filter FITC FP 480, emission filter FITC FP P-pol 535 and 2nd emission filter FITC FP S-pol 535 and set to 30 flashes. The gain was set in a well containing tracer alone without target protein.

T2 sequence (O76036 22-255 limits assumed): as above

| Ki [nM] | Binder |
| --- | --- |
| 77 | B2 |
| 910 | ACYL[Aib]DYLCGDEYCA-NH2 (linker 2-9-14 via TATA, scaffold TATA) [BCY15642] |
| 159 | B3 |
| 755 | B4 |
| 391 | ACYLPDW[Cba]CGDEYCA-NH2 (linker 2-9-14 via TATA, scaffold TATA) [BCY15649] |
| 49 | ACYLPDYLCGDEYCA-NH2 (linker 2-9-14 via TATA; also: scaffold TATA, TATB or TBMT, scaffold TATA) [BCY15100] |
| 672 | ACYLPDYLCGDEACA-NH2 (linker 2-9-14 via TATA; also: cyclised with TATA, TATB or TBMT, scaffold TATA) [BCY15662] |
| 411 | ACALPDYLCGDEYCA-NH2 (linker 2-9-14 via TATA; also: cyclised with TATA, TATB or TBMT, scaffold TATA) [BCY15653] |
| 324 | ACYLADYLCGDEYCA-NH2 (linker 2-9-14 via TATA; also: cyclised with TATA, TATB or TBMT, scaffold TATA) [BCY15655] |
| 1780 | ACYLPDYLCGDAYCA-NH2 (linker 2-9-14 via TATA; also: cyclised with TATA, TATB or TBMT, scaffold TATA) [BCY15661] |
| 226 | ACYLPDYLCADEYCA-NH2 (linker 2-9-14 via TATA; also: cyclised with TATA, TATB or TBMT, scaffold TATA) [BCY15659] |
| 86 | CYLPDYLCGDEYC-NH2 (linker 1-8-13 via TATA; also: scaffold TATA, TATB or TBMT, scaffold TATA) [BCY15633] |
| 269 | B5 |
| 321 | ACY[Ala(cPent)]PDYLCGDEYCA-NH2 (linker 2-9-14 via TATA, scaffold TATA) [BCY16130] |
| 61 | Ac-ACYLPDYLCGDEYCA-NH2 (linker 2-9-14 via TATA, scaffold TATA) [BCY15635] |
| 98 | Ac-CYLPDYLCGDEYC-NH2 (linker 1-8-13 via TATA; not fully specified, scaffold TATA) [BCY15634] |
| 1620 | B6 |
| 122 | B7 |
| 639 | B8 |
